Experimental data taken from patent US20190083615A1 (Merck Sharp & Dohme, published 2019).

How the values were obtained:
[1] = target: T1, human LAG3 (Lymphocyte Activation Gene-3) expressed on cells (human, UniProt P18627 23-525); assay: cell based KinExA, BaF/3 cells transfected with human LAG3 (n=3)
T1 construct: also called hLAG3; CD223
T1 sequence: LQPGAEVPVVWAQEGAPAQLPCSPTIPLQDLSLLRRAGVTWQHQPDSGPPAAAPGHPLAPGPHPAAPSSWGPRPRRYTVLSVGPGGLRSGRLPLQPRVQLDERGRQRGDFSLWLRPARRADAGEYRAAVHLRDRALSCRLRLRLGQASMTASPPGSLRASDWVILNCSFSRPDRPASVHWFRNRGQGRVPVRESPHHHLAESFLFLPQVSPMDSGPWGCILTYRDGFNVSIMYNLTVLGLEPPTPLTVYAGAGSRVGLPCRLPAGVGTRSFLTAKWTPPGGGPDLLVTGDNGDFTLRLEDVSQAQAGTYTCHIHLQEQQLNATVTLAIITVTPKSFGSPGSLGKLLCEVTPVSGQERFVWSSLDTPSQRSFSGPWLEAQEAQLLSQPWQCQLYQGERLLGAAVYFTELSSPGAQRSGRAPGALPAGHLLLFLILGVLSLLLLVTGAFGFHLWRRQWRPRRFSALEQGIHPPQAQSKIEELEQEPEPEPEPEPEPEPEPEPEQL
Description: The affinities of the LAG3 antibodies for LAG3 were determined using a cell based Kinetic Exclusion Assay (KinExA). Cell based KinExA can be used to measure the affinity of a molecule for a binding partner on a cell surface (Rathanaswami et al. Analylitical Biochemistry 373(1): 52-60 (2008); Xie et al. J. Immunol. Methods 304 (1-2): 1-14 (2005)). In this case, BaF/3 cells were stably transfected with human and cynomolgus monkey LAG3 proteins. Transfected cells or the parental BaF/3 control cell line were grown to a density of 1.7×10⁶ to 3.2×10⁶ cells per ml at 37° C., 120 RPM, 5% CO₂, in 1X RPMI 1640 media with 10% FBS, 10 ng/ml IL-3, 5 μg/ml puromycin. Cells were concentrated, mixed with 15 pM or 150 pM antibody in cell culture media and incubated 24 to 48 hours at room temperature while rotating at 20 to 30 RPM. Cells were present at a top concentration of 2×10⁷ cells per ml (parental BaF/3 or cynomolgus LAG3 transfectants) or 1×10⁷ cells per ml (human LAG3 transfectants) and diluted in a 2-fold, 18 member series. The cells were pelleted and free antibody in the supernatant was measured using a KinExA 3200 instrument (Sapidyne, Id., USA). […] Antibody on the beads was labeled with 1.5 μg/ml Alexa Fluor® 647 conjugated goat anti-human (Fab′)₂ (Jackson ImmunoResearch Laboratories), washed and the fluorescent signal was read all using the KinExA™ 3200. […]

[2] = target: T1, human LAG3 (Lymphocyte Activation …); assay: flow cytometry, PHA-activated human CD8+ T cells (3 donors)
Description: (§1) Binding of LAG-3 mAb clones to primary T-cells was assessed using human and cynomolgous monkey (cyno) peripheral blood mononuclear cells (PBMC). Human blood was obtained from the local donors; cyno blood was obtained from Bioreclamation. PBMC were isolated from the whole blood using Ficoll-Paque Plus (GE Healthcare, Cat# 17-1440-03) density gradient centrifugation at 524×g for 40 minutes. PBMC were collected from the medium:plasma interface and washed 2 times with phosphate buffered saline (PBS). The residual red blood cells were lysed using ammonium-chloride-potassium red blood cell lysing solution (ACK, GIBCO, cat# A10492-010). Cynomolgus monkey or human PBMC (3×10⁶/ml) were stimulated with 4 μg/ml PHA (Sigma, L2769) for 48 h and 20 h, respectively. For flow cytometric analysis, 1×10⁶ PHA-activated PBMCs were used per staining in 50 μl FACS staining buffer (BD, cat# 554657). LAG-3 mAb clones or correspondent isotype controls were incubated with human or cyno PBMS followed by detection using goat anti-mouse IgG-PE (BD 550589). […] Sample acquisition was performed on an LSR II flow cytometer and the data were analyzed using FlowJo software version 10.0.6 (Tree Star, Inc.).
(§2) The data represent 3 human and 3 cynomolgus donors after stimulation with 4 ug/ml of PHA for 40 hours prior to staining.

[3] = target: T1, human LAG3 (Lymphocyte Activation …); assay: flow cytometry, PHA-activated human CD4+ T cells (3 donors)
Description: as §1, §2

[4] = target: T2, human LAG3-huFc recombinant protein (human, UniProt P18627 23-450, limits assumed, biotinylated in the runs with humanized and chimeric antibodies (Example 11)); assay: flow cytometry, blockade of biotinylated human LAG3-huFc binding to MHC class II on Daudi cells, streptavidin-PE
T2 construct: also called human LAG3-Fc; huLAG3-huFc; not shown: human Fc
T2 sequence: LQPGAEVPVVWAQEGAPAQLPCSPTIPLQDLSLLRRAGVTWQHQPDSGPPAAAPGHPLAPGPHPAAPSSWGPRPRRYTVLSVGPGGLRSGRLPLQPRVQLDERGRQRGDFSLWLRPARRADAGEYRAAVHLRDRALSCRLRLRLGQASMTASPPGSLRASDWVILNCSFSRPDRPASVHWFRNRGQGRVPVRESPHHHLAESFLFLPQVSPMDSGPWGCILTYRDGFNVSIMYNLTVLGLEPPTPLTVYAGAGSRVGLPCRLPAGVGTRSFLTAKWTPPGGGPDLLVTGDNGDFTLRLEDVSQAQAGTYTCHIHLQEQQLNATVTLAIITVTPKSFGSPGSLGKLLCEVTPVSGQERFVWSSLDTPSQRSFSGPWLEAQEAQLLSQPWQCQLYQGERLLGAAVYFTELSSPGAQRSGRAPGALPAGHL
Description: Mouse anti-human LAG3 and humanized anti-LAG3 clones were tested for their ability to block hLAG3 interaction with human MHC Class II. Daudi cells (ATCC #CCL-213) were used as a cell line positive for human MHC class II expression. Daudi cells were blocked with 10 ug/ml of goat IgG in HBSS and 2% BCS on ice for 30 minutes and 0.5×10⁶ cells/sample were aliquoted into a 96-well V-bottom plate and blocking buffer removed. […] Cells were pelleted by centrifugation at 1200 rpm and washed twice with HBSS/2% BCS. […] Cells were washed twice as described above, resuspended in HBSS/2% BCS and read on the FACSCalibur.

[5] = target: T3, human CD4 (human, UniProt P01730 26-458); assay: BiaCore (SPR)
T3 construct: whole, on cells; Tested on transfected L-cells by FACS and also by BiaCore

B1: Ab6: humanized light chain 45AGX Humanized x[LAG3_H] mAb (LB145.22D2.E1.D1 (VL3)) Kappa (PX) and humanized heavy chain 73AHD Humanized x[LAG3_H] mAb … (antibody)
heavy: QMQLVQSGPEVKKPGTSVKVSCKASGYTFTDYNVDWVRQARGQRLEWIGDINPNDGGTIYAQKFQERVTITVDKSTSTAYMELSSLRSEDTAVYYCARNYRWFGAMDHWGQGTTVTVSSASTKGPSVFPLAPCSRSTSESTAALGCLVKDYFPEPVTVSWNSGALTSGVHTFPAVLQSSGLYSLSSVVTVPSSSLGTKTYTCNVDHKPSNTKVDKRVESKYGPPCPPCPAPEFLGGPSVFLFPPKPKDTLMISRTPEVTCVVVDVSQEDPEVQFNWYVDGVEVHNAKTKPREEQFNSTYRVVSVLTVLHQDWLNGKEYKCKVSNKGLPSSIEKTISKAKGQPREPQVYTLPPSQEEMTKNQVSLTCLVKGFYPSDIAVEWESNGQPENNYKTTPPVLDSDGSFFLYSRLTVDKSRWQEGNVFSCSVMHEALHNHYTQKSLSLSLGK
light: DIVMTQTPLSLSVTPGQPASISCKASQSLDYEGDSDMNWYLQKPGQPPQLLIYGASNLESGVPDRFSGSGSGTDFTLKISRVEAEDVGVYYCQQSTEDPRTFGGGTKVEIKRTVAAPSVFIFPPSDEQLKSGTASVVCLLNNFYPREAKVQWKVDNALQSGNSQESVTEQDSKDSTYSLSSTLTLSKADYEKHKVYACEVTHQGLSSPVTKSFNRGEC
notes: Humanized 22D2 N55D, IgG4 S228P/kappa; also called Hu22D2 VH6/VL3 N55D (Ab 6); hu22D2 VH6/VL3 N55D
[1]
  Kd: 2 pM
[2]
  EC50: 0.033 nM
[3]
  EC50: 0.039 nM
[4]
  IC50: 2.4 nM
[5]
  binding result: no binding
